According to the supplement of paper PMC5998384:

How the values were obtained:
HeLa Kyoto [1] = test: solubility in G1/S (NP-40 vs SDS abundance) (log2 ratio); higher = more soluble; details: cell cycle stage: G1/S
HeLa Kyoto [2] = test: solubility change mitosis vs G1/S (difference of NP-40 vs SDS log2 ratios) (log2 ratio difference); higher = more soluble in mitosis
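Wherever solubility change mitosis vs G1/S (difference of NP-40 vs SDS log2 ratios) is given: synchronized HeLa Kyoto cells (double thymidine block for G1/S, nocodazole release for mitosis), protein amounts in NP-40 versus SDS lysates quantified by mass spectrometry, three biological replicates.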
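Wherever solubility in G1/S (NP-40 vs SDS abundance) is given: HeLa Kyoto cells arrested at G1/S by double thymidine block, proteins quantified by TMT10plex mass spectrometry in mild NP-40 versus SDS extracts, three biological replicates.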

With “MAAAVAAPLAAGGEEAAATTSVPGSPGLPGRRSAERALEEAVATGTLNLSNRRLKHFPRGAARSYDLSDITQADLSRNRFPEVPEAACQLVSLEGLSLYHNCLRCLNPALGNLTALTYLNLSRNQLSLLPPYICQLPLRVLIVSNNKLGALPPDIGTLGSLRQLDVSSNELQSLPSELCGLSSLRDLNVRRNQLSTLPEELGDLPLVRLDFSCNRVSRIPVSFCRLRHLQVILLDSNPLQSPPAQVCLKGKLHIFKYLSTEAGQRGSALGDLAPSRPPSFSPCPAEDLFPGHRYDGGLDSGFHSVDSGSKRWSGNESTDEFSELSFRISELAREPRGPRERKEDGSADGDPVQIDFIDSHVPGEDEERGTVEEQRPPELSPGAGDRERAPSSRREEPAGEERRRPDTLQLWQERERRQQQQSGAWGAPRKDSLLKPGLRAVVGGAAAVSTQAMHNGSPKSSASQAGAAAGQGAPAPAPASQEPLPIAGPATAPAPRPLGSIQRPNSFLFRSSSQSGSGPSSPDSVLRPRRYPQVPDEKDLMTQLRQVLESRLQRPLPEDLAEALASGVILCQLANQLRPRSVPFIHVPSPAVPKLSALKARKNVESFLEACRKMGVPEADLCSPSDLLQGTARGLRTALEAVKRVGGKALPPLWPPSGLGGFVVFYVVLMLLLYVTYTRLLGS [LRCH4]” the “solubility in G1/S (log2)” value (HeLa Kyoto [1]) was 0.302 and the “solubility change mitosis (log2)” value (HeLa Kyoto [2]) was -0.305.
With “MAEHAPRRCCLGWDFSTQQVKVVAVDAELNVFYEESVHFDRDLPEFGTQGGVHVHKDGLTVTSPVLMWVQALDIILEKMKASGFDFSQVLALSGAGQQHGSIYWKAGAQQALTSLSPDLRLHQQLQDCFSISDCPVWMDSSTTAQCRQLEAAVGGAQALSCLTGSRAYERFTGNQIAKIYQQNPEAYSHTERISLVSSFAASLFLGSYSPIDYSDGSGMNLLQIQDKVWSQACLGACAPHLEEKLSPPVPSCSVVGAISSYYVQRYGFPPGCKVVAFTGDNPASLAGMRLEEGDIAVSLGTSDTLFLWLQEPMPALEGHIFCNPVDSQHYMALLCFKNGSLMREKIRNESVSRSWSDFSKALQSTEMGNGGNLGFYFDVMEITPEIIGRHRFNTENHKVAAFPGDVEVRALIEGQFMAKRIHAEGLGYRVMSKTKILATGGASHNREILQVLADVFDAPVYVIDTANSACVGSAYRAFHGLAGGTDVPFSEVVKLAPNPRLAATPSPGASQVYEALLPQYAKLEQRILSQTRGPPE [XYLB]” the “solubility in G1/S (log2)” value (HeLa Kyoto [1]) was -0.242 and the “solubility change mitosis (log2)” value (HeLa Kyoto [2]) was 0.111.
For “MFPVKVKVEKSELEMAKARNQLDAVLQCLLEKSHMDRERLDEEAGKTPSDTHNKDCSIAATGKRPSARFPHQRRKKRREMDDGLAEGGPQRSNTYVIKLFDRSVDLAQFSENTPLYPICRAWMRNSPSVRERECSPSSPLPPLPEDEEGSEVTNSKSRDVYKLPPPTPPGPPGDACRSRIPSPLQPEMQGTPDDEPSEPEPSPSTLIYRNMQRWKRIRQRWKEASHRNQLRYSESMKILREMYERQ [LIN37]”, the “solubility in G1/S (log2)” value (HeLa Kyoto [1]) was 0.591 and the “solubility change mitosis (log2)” value (HeLa Kyoto [2]) was 0.0692.
For KIAA0586, the “solubility in G1/S (log2)” value (HeLa Kyoto [1]) was -0.0749 and the “solubility change mitosis (log2)” value (HeLa Kyoto [2]) was 0.00667.
For “MGASSSSALARLGLPARPWPRWLGVAALGLAAVALGTVAWRRAWPRRRRRLQQVGTVAKLWIYPVKSCKGVPVSEAECTAMGLRSGNLRDRFWLVIKEDGHMVTARQEPRLVLISIIYENNCLIFRAPDMDQLVLPSKQPSSNKLHNCRIFGLDIKGRDCGNEAAKWFTNFLKTEAYRLVQFETNMKGRTSRKLLPTLDQNFQVAYPDYCPLLIMTDASLVDLNTRMEKKMKMENFRPNIVVTGCDAFEEDTWDELLIGSVEVKKVMACPRCILTTVDPDTGVIDRKQPLDTLKSYRLCDPSERELYKLSPLFGIYYSVEKIGSLRVGDPVYRMV [MARC2]”, the “solubility in G1/S (log2)” value (HeLa Kyoto [1]) was -0.315 and the “solubility change mitosis (log2)” value (HeLa Kyoto [2]) was 0.103.
For “MEKLYSENEGMASNQGKMENEEQPQDERKPEVTCTLEDKKLENEGKTENKGKTGDEEMLKDKGKPESEGEAKEGKSEREGESEMEGGSEREGKPEIEGKPESEGEPGSETRAAGKRPAEDDVPRKAKRKTNKGLAHYLKEYKEAIHDMNFSNEDMIREFDNMAKVQDEKRKSKQKLGAFLWMQRNLQDPFYPRGPREFRGGCRAPRRDIEDIPYV [TCEAL4]”, the “solubility in G1/S (log2)” value (HeLa Kyoto [1]) was 0.49 and the “solubility change mitosis (log2)” value (HeLa Kyoto [2]) was 0.452.
“MAATDLERFSNAEPEPRSLSLGGHVGFDSLPDQLVSKSVTQGFSFNILCVGETGIGKSTLMNTLFNTTFETEEASHHEACVRLRPQTYDLQESNVQLKLTIVDAVGFGDQINKDESYRPIVDYIDAQFENYLQEELKIRRSLFDYHDTRIHVCLYFITPTGHSLKSLDLVTMKKLDSKVNIIPIIAKADTISKSELHKFKIKIMGELVSNGVQIYQFPTDDEAVAEINAVMNAHLPFAVVGSTEEVKVGNKLVRARQYPWGVVQVENENHCDFVKLREMLIRVNMEDLREQTHSRHYELYRRCKLEEMGFQDSDGDSQPFSLQETYEAKRKEFLSELQRKEEEMRQMFVNKVKETELELKEKERELHEKFEHLKRVHQEEKRKVEEKRRELEEETNAFNRRKAAVEALQSQALHATSQQPLRKDKDKKNRSDIGAHQPGMSLSSSKVMMTKASVEPLNCSSWWPAIQCCSCLVRDATWREGFL [SEPT8]” was tested, and the “solubility in G1/S (log2)” value (HeLa Kyoto [1]) was -0.0316 and the “solubility change mitosis (log2)” value (HeLa Kyoto [2]) was -0.0125.
“MACSLQKLFAVEEEFEDEDFLSAVEDAENRFTGSLPVNAGRLRPVSSRPQETVQAQSSRLLLLHPTAPSEALGLPDLDLCLPASSTPSADSRPSCIGAAPLRPVSTSSSWIGNQRRVTVTEVLRETARPQSSALHPLLTFESQQQQVGGFEGPEQDEFDKVLASMELEEPGMELECGVSSEAIPILPAQQREGSVLAKKARVVDLSGSCQKGPVPAIHKAGIMSAQDESLDPVIQCRTPRPPLRPGAVGHLPVPTALTVPTQQLHWEVCPQRSPVQALQPLQAARGTIQSSPQNRFPCQPFQSPSSWLSGKAHLPRPRTPNSSCSTPSRTSSGLFPRIPLQPQAPVSSIGSPVGTPKGPQGALQTPIVTNHLVQLVTAASRTPQQPTHPSTRAKTRRFPGPAGILPHQQSGRSLEDIMVSAPQTPTHGALAKFQTEIVASSQASVEEDFGRGPWLTMKSTLGLDERDPSCFLCTYSIVMVLRKQAALKQLPRNKVPNMAVMIKSLTRSTMDASVVFKDPTGEMQGTVHRLLLETCQNELKPGSVLLLKQIGVFSPSLRNHYLNVTPNNLVHIYSPDSGDGSFLKPSQPFPKDSGSFQHDVAAKPEEGFRTAQNLEAEASPEEELPEADDLDGLLSELPEDFFCGTSS [C17ORF53]” was tested, and the “solubility in G1/S (log2)” value (HeLa Kyoto [1]) was 0.384 and the “solubility change mitosis (log2)” value (HeLa Kyoto [2]) was 0.0975.
In the case of “MEEKPSGPIPDMLATAEPSSSETDKEVLSPAVPAAAPSSSMSEEPGPEQAATPPVWERGGAGGMQQGSSPAPDSCQPGPGPSPGLTSIVSGTSEDLRPPRRRPPPGKQIPCSSPGCCLSFPSVRDLAQHLRTHCPPTQSLEGKLFRCSALSCTETFPSMQELVAHSKLHYKPNRYFKCENCLLRFRTHRSLFKHLHVCAEHAQSPAPPPPPALDREPPAPERPPEVDPASAPGLPFPLLEPFTTPAPAPTGPFLPYLNPAPFGLSPPRLRPFLAAAPGPPASSAAVWKKSQGAGSSPRRPQGGSDAPSGACR [ZNF414]”, the “solubility in G1/S (log2)” value (HeLa Kyoto [1]) is reported as -0.217 and the “solubility change mitosis (log2)” value (HeLa Kyoto [2]) is reported as -0.445.
In the case of “MLRLLASGCARGPGPGVGARPAAGLFHPGRRQSRQASDAPRNQPPSPEFVARPVGVCSMMRLPVQTSPEGLDAAFIGVPLDTGTSNRPGARFGPRRIREESVMLGTVNPSTGALPFQSLMVADLGDVNVNLYNLQDSCRRIQEAYEKIVAAGCIPLTLGGDHTITYPILQAMAKKHGPVGLLHVDAHTDTTDKALGEKLYHGAPFRRCVDEGLLDCKRVVQIGIRGSSTTLDPYRYNRSQGFRVVLAEDCWMKSLVPLMGEVRQQMGGKPIYISFDIDALDPAYAPGTGTPEIAGLTPSQALEIIRGCQGLNVMGCDLVEVSPPYDLSGNTALLAANLLFEMLCALPKVTTV [AGMAT]”, the “solubility in G1/S (log2)” value (HeLa Kyoto [1]) is reported as 0.243 and the “solubility change mitosis (log2)” value (HeLa Kyoto [2]) is reported as 0.0673.
For SYNJ2, the “solubility in G1/S (log2)” value (HeLa Kyoto [1]) was -0.61 and the “solubility change mitosis (log2)” value (HeLa Kyoto [2]) was 0.309.
In the case of “MAQKENSYPWPYGRQTAPSGLSTLPQRVLRKEPVTPSALVLMSRSNVQPTAAPGQKVMENSSGTPDILTRHFTIDDFEIGRPLGKGKFGNVYLAREKKSHFIVALKVLFKSQIEKEGVEHQLRREIEIQAHLHHPNILRLYNYFYDRRRIYLILEYAPRGELYKELQKSCTFDEQRTATIMEELADALMYCHGKKVIHRDIKPENLLLGLKGELKIADFGWSVHAPSLRRKTMCGTLDYLPPEMIEGRMHNEKVDLWCIGVLCYELLVGNPPFESASHNETYRRIVKVDLKFPASVPMGAQDLISKLLRHNPSERLPLAQVSAHPWVRANSRRVLPPSALQSVA [AURKB]”, the “solubility in G1/S (log2)” value (HeLa Kyoto [1]) is reported as -1.2 and the “solubility change mitosis (log2)” value (HeLa Kyoto [2]) is reported as -0.11.
For “MVHAFLIHTLRAPNTEDTGLCRVLYSCVFGAEKSPDDPRPHGAERDRLLRKEQILAVARQVESMCRLQQQASGRPPMDLQPQSSDEQVPLHEAPRGAFRLAAENPFQEPRTVVWLGVLSLGFALVLDAHENLLLAEGTLRLLTRLLLDHLRLLAPSTSLLLRADRIEGILTRFLPHGQLLFLNDQFVQGLEKEFSAAWPR [AP5S1]”, the “solubility in G1/S (log2)” value (HeLa Kyoto [1]) was -0.269 and the “solubility change mitosis (log2)” value (HeLa Kyoto [2]) was -0.153.
In the case of “MSFLFSSRSSKTFKPKKNIPEGSHQYELLKHAEATLGSGNLRQAVMLPEGEDLNEWIAVNTVDFFNQINMLYGTITEFCTEASCPVMSAGPRYEYHWADGTNIKKPIKCSAPKYIDYLMTWVQDQLDDETLFPSKIGVPFPKNFMSVAKTILKRLFRVYAHIYHQHFDSVMQLQEEAHLNTSFKHFIFFVQEFNLIDRRELAPLQELIEKLGSKDR [MOB1A]”, the “solubility in G1/S (log2)” value (HeLa Kyoto [1]) is reported as 0.448 and the “solubility change mitosis (log2)” value (HeLa Kyoto [2]) is reported as -0.11.
For “MLRLQMTDGHISCTAVEFSYMSKISLNTPPGTKVKLSGIVDIKNGFLLLNDSNTTVLGGEVEHLIEKWELQRSLSKHNRSNIGTEGGPPPFVPFGQKCVSHVQVDSRELDRRKTLQVTMPVKPTNDNDEFEKQRTAAIAEVAKSKETKTFGGGGGGARSNLNMNAAGNRNREVLQKEKSTKSEGKHEGVYRELVDEKALKHITEMGFSKEASRQALMDNGNNLEAALNVLLTSNKQKPVMGPPLRGRGKGRGRIRSEDEEDLGNARPSAPSTLFDFLESKMGTLNVEEPKSQPQQLHQGQYRSSNTEQNGVKDNNHLRHPPRNDTRQPRNEKPPRFQRDSQNSKSVLEGSGLPRNRGSERPSTSSVSEVWAEDRIKCDRPYSRYDRTKDTSYPLGSQHSDGAFKKRDNSMQSRSGKGPSFAEAKENPLPQGSVDYNNQKRGKRESQTSIPDYFYDRKSQTINNEAFSGIKIEKHFNVNTDYQNPVRSNSFIGVPNGEVEMPLKGRRIGPIKPAGPVTAVPCDDKIFYNSGPKRRSGPIKPEKILESSIPMEYAKMWKPGDECFALYWEDNKFYRAEVEALHSSGMTAVVKFIDYGNYEEVLLSNIKPIQTEAWEEEGTYDQTLEFRRGGDGQPRRSTRPTQQFYQPPRARN [TDRD3]”, the “solubility in G1/S (log2)” value (HeLa Kyoto [1]) was -0.658 and the “solubility change mitosis (log2)” value (HeLa Kyoto [2]) was 0.149.
